Biological target: T1, Human CD3 epsilon (CD3ε), on primary human pan T cells (human, UniProt P07766 23-207)
T1 construct: Endogenous CD3 in the TCR complex on T cells; also called T-cell surface glycoprotein CD3 epsilon chain; T3E
Experiment: flow cytometry on human T cells, anti-human IgG Fc A647 detection
Procedure: The bsAbs were assayed for their abilities bind T cells and to induce T-cell mediated cytotoxicity against H929 cells (ATCC@CRL-9068™). […] Stain buffer with no antibody was added to bottom 4 wells and assign as background control (secondary antibody alone). Parental Cris7b, CD3B695 (bivalent mAb controls) and CD3B375 (bsAb which was monovalent for Cris-7b) were added also with full dose-response curves.
Frozen T-cells were thawed in a 37° C. water bath and transferred gently into conical tube containing warm 5 mL media (RPMI+10% FBS)/1 vial of 1×10⁶ cells. Cells were mixed and centrifuged for 5 minutes at 400×g followed by resuspension in flow staining buffer, and counted and viability checked. Cells were then plated in 50 uL/50,000 cells/well into assay plates. Assay positive control mAb was added in the first column in quadruplicates at 2× at 20 nM in the bottom 4 wells. Stain buffer with no mAb was added to the top 4 wells and assigned as background controls (secondary antibody alone). Serially diluted antibody samples were added at 50 uL/well using Intergra Viaflo according to the attached plate maps and incubated for 1 hr at 37° C. After one hour incubation, 150 uL staining buffer were added to all wells, and cells were spun at 500×g for 5 minutes to pellet cells. Cells were then washed prior to addition of Alexa Fluor 647 (A647) conjugated anti human IgG Fc specific secondary detection antibody at 2 ug/mL in staining buffer. Secondary detection antibody was added at 50 uL/well to the washed cells. Plates were covered with foil and incubated for 30 minutes on ice or in the fridge. 150 uL staining buffer were added to all wells, and cells were spun at 500×g for 5 min to pellet cells. Cells were resuspended in 20 uL running buffer containing 1:1000 dilution of SYTOX™ green dead cell stain and run plates on iQue® Screener flow cytometer (Essen BioScience, Inc.). Briefly, cells were gated on FCS vs. SCS dot plot to eliminate debris. Singlets were gated on SCS-A vs SCS-H dot plot and from singlet population, live cells gated choosing BL1 channel for low/negative with SYTOX™ green viability stain (Thermo Fisher).

T1 sequence (P07766 23-207 limits assumed): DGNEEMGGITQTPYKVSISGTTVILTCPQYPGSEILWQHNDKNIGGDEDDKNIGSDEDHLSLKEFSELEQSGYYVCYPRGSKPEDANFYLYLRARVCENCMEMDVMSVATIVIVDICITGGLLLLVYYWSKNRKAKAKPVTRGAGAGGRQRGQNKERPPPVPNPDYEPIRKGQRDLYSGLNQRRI

Binder | EC50
BC3B102 (bispecific antibody, human IgG1, kappa, L234A L235A, IgG1 BCMAxCD3; HC1: CD3B2030 HL scFv-Fc; also called BC3B102.001; B2030 HL) QVQLVQSGAEVKKPGSSVKVSCKASGYTFTRSTMHWVKQAPGQGLEWIGYINPSSAYTNYNQKFQGRVTLTADKSTSTAYMELSSLRSEDTAVYYCASPQVHYDYNGFPYWGQGTLVTVSSGGSEGKSSGSGSESKSTGGSEIVLTQSPATLSASPGERVTLSCSASSSVSYMNWYQQKPGQAPRRWIYDSSKLASGVPARFSGSGSGRDYTLTISSLEPEDFAVYYCQQWSRNPPTFGGGTKVEIKEPKSSDKTHTCPPCPAPEAAGGPSVFLFPPKPKDTLMISRTPEVTCVVVSVSHEDPEVKFNWYVDGVEVHNAKTKPREEQYNSTYRVVSVLTVLHQDWLNGKEYKCKVSNKALPAPIEKTISKAKGQPREPQVYVYPPSREEMTKNQVSLTCLVKGFYPSDIAVEWESNGQPENNYKTTPPVLDSDGSFALVSKLTVDKSRWQQGNVFSCSVMHEALHNHYTQKSLSLSPG heavy: not shown light: EIVLTQSPGTLSLSPGERATLSCRASQSISSSFLTWYQQKPGQAPRLLIYGASSRATGIPDRFSGGGSGTDFTLTISRLEPEDFAVYYCQHYGSSPMYTFGQGTKLEIKRTVAAPSVFIFPPSDEQLKSGTASVVCLLNNFYPREAKVQWKVDNALQSGNSQESVTEQDSKDSTYSLSSTLTLSKADYEKHKVYACEVTHQGLSSPVTKSFNRGEC | 3 nM
BC3B116 (bispecific antibody, human IgG1, kappa, L234A L235A, IgG1 BCMAxCD3; HC1: CD3B2030 LH scFv-Fc; also called BC3B116.001; B2030 LH) EIVLTQSPATLSASPGERVTLSCSASSSVSYMNWYQQKPGQAPRRWIYDSSKLASGVPARFSGSGSGRDYTLTISSLEPEDFAVYYCQQWSRNPPTFGGGTKVEIKGGSEGKSSGSGSESKSTGGSQVQLVQSGAEVKKPGSSVKVSCKASGYTFTRSTMHWVKQAPGQGLEWIGYINPSSAYTNYNQKFQGRVTLTADKSTSTAYMELSSLRSEDTAVYYCASPQVHYDYNGFPYWGQGTLVTVSSEPKSSDKTHTCPPCPAPEAAGGPSVFLFPPKPKDTLMISRTPEVTCVVVSVSHEDPEVKFNWYVDGVEVHNAKTKPREEQYNSTYRVVSVLTVLHQDWLNGKEYKCKVSNKALPAPIEKTISKAKGQPREPQVYVYPPSREEMTKNQVSLTCLVKGFYPSDIAVEWESNGQPENNYKTTPPVLDSDGSFALVSKLTVDKSRWQQGNVFSCSVMHEALHNHYTQKSLSLSPG heavy: not shown light: EIVLTQSPGTLSLSPGERATLSCRASQSISSSFLTWYQQKPGQAPRLLIYGASSRATGIPDRFSGGGSGTDFTLTISRLEPEDFAVYYCQHYGSSPMYTFGQGTKLEIKRTVAAPSVFIFPPSDEQLKSGTASVVCLLNNFYPREAKVQWKVDNALQSGNSQESVTEQDSKDSTYSLSSTLTLSKADYEKHKVYACEVTHQGLSSPVTKSFNRGEC | 21.8 nM
BC3B112 (bispecific antibody, human IgG1, kappa, L234A L235A, IgG1 BCMAxCD3; HC1: CD3B2089-N106A HL scFv-Fc; also called BC3B112.001; B2089 HL NtoA) QVQLVQSGAEVKKPGSSVKVSCKASGYTFTRSTMHWVRQAPGQGLEWMGYINPSSAYTNYAQKFQGRVTLTADKSTSTAYMELSSLRSEDTAVYYCASPQVHYDYAGFPYWGQGTLVTVSSGGSEGKSSGSGSESKSTGGSEIVLTQSPATLSASPGERVTLSCSASSSVSYMNWYQQKPGQAPRRWIYDSSKLASGVPARFSGSGSGRDYTLTISSLEPEDFAVYYCQQWSRNPPTFGGGTKVEIKEPKSSDKTHTCPPCPAPEAAGGPSVFLFPPKPKDTLMISRTPEVTCVVVSVSHEDPEVKFNWYVDGVEVHNAKTKPREEQYNSTYRVVSVLTVLHQDWLNGKEYKCKVSNKALPAPIEKTISKAKGQPREPQVYVYPPSREEMTKNQVSLTCLVKGFYPSDIAVEWESNGQPENNYKTTPPVLDSDGSFALVSKLTVDKSRWQQGNVFSCSVMHEALHNHYTQKSLSLSPG heavy: not shown light: EIVLTQSPGTLSLSPGERATLSCRASQSISSSFLTWYQQKPGQAPRLLIYGASSRATGIPDRFSGGGSGTDFTLTISRLEPEDFAVYYCQHYGSSPMYTFGQGTKLEIKRTVAAPSVFIFPPSDEQLKSGTASVVCLLNNFYPREAKVQWKVDNALQSGNSQESVTEQDSKDSTYSLSSTLTLSKADYEKHKVYACEVTHQGLSSPVTKSFNRGEC | ≥ 300 nM
BC3B124 (bispecific antibody, human IgG1, kappa, L234A L235A, IgG1 BCMAxCD3; HC1: CD3B2051-N106S LH scFv-Fc; also called BC3B124.001; B2051 LH NtoS) EIVLTQSPATLSASPGERVTLSCSASSSVSYMNWYQQKPGQAPRRLIYDSSKLASGVPARFSGSGSGRDYTLTISSLEPEDFAVYYCQQWSRNPPTFGGGTKVEIKGGSEGKSSGSGSESKSTGGSQVQLVQSGAEVKKPGSSVKVSCKASGYTFTRSTMHWVKQAPGQGLEWMGYINPSSAYTNYNQKFQGRVTLTADKSTSTAYMELSSLRSEDTAVYYCASPQVHYDYSGFPYWGQGTLVTVSSEPKSSDKTHTCPPCPAPEAAGGPSVFLFPPKPKDTLMISRTPEVTCVVVSVSHEDPEVKFNWYVDGVEVHNAKTKPREEQYNSTYRVVSVLTVLHQDWLNGKEYKCKVSNKALPAPIEKTISKAKGQPREPQVYVYPPSREEMTKNQVSLTCLVKGFYPSDIAVEWESNGQPENNYKTTPPVLDSDGSFALVSKLTVDKSRWQQGNVFSCSVMHEALHNHYTQKSLSLSPG heavy: not shown light: EIVLTQSPGTLSLSPGERATLSCRASQSISSSFLTWYQQKPGQAPRLLIYGASSRATGIPDRFSGGGSGTDFTLTISRLEPEDFAVYYCQHYGSSPMYTFGQGTKLEIKRTVAAPSVFIFPPSDEQLKSGTASVVCLLNNFYPREAKVQWKVDNALQSGNSQESVTEQDSKDSTYSLSSTLTLSKADYEKHKVYACEVTHQGLSSPVTKSFNRGEC | 300 nM

More lines, now with the values ahead:

EC50 | Binder
100 nM | BC3B120 (bispecific antibody, human IgG1, kappa, L234A L235A, IgG1 BCMAxCD3; HC1: CD3B2051 LH scFv-Fc; also called BC3B120.001; B2051 LH) EIVLTQSPATLSASPGERVTLSCSASSSVSYMNWYQQKPGQAPRRLIYDSSKLASGVPARFSGSGSGRDYTLTISSLEPEDFAVYYCQQWSRNPPTFGGGTKVEIKGGSEGKSSGSGSESKSTGGSQVQLVQSGAEVKKPGSSVKVSCKASGYTFTRSTMHWVKQAPGQGLEWMGYINPSSAYTNYNQKFQGRVTLTADKSTSTAYMELSSLRSEDTAVYYCASPQVHYDYNGFPYWGQGTLVTVSSEPKSSDKTHTCPPCPAPEAAGGPSVFLFPPKPKDTLMISRTPEVTCVVVSVSHEDPEVKFNWYVDGVEVHNAKTKPREEQYNSTYRVVSVLTVLHQDWLNGKEYKCKVSNKALPAPIEKTISKAKGQPREPQVYVYPPSREEMTKNQVSLTCLVKGFYPSDIAVEWESNGQPENNYKTTPPVLDSDGSFALVSKLTVDKSRWQQGNVFSCSVMHEALHNHYTQKSLSLSPG heavy: not shown light: EIVLTQSPGTLSLSPGERATLSCRASQSISSSFLTWYQQKPGQAPRLLIYGASSRATGIPDRFSGGGSGTDFTLTISRLEPEDFAVYYCQHYGSSPMYTFGQGTKLEIKRTVAAPSVFIFPPSDEQLKSGTASVVCLLNNFYPREAKVQWKVDNALQSGNSQESVTEQDSKDSTYSLSSTLTLSKADYEKHKVYACEVTHQGLSSPVTKSFNRGEC
6.4 nM | BC3B111 (bispecific antibody, human IgG1, kappa, L234A L235A, IgG1 BCMAxCD3; HC1: CD3B2089 HL scFv-Fc; also called BC3B111.001; B2089 HL) QVQLVQSGAEVKKPGSSVKVSCKASGYTFTRSTMHWVRQAPGQGLEWMGYINPSSAYTNYAQKFQGRVTLTADKSTSTAYMELSSLRSEDTAVYYCASPQVHYDYNGFPYWGQGTLVTVSSGGSEGKSSGSGSESKSTGGSEIVLTQSPATLSASPGERVTLSCSASSSVSYMNWYQQKPGQAPRRWIYDSSKLASGVPARFSGSGSGRDYTLTISSLEPEDFAVYYCQQWSRNPPTFGGGTKVEIKEPKSSDKTHTCPPCPAPEAAGGPSVFLFPPKPKDTLMISRTPEVTCVVVSVSHEDPEVKFNWYVDGVEVHNAKTKPREEQYNSTYRVVSVLTVLHQDWLNGKEYKCKVSNKALPAPIEKTISKAKGQPREPQVYVYPPSREEMTKNQVSLTCLVKGFYPSDIAVEWESNGQPENNYKTTPPVLDSDGSFALVSKLTVDKSRWQQGNVFSCSVMHEALHNHYTQKSLSLSPG heavy: not shown light: EIVLTQSPGTLSLSPGERATLSCRASQSISSSFLTWYQQKPGQAPRLLIYGASSRATGIPDRFSGGGSGTDFTLTISRLEPEDFAVYYCQHYGSSPMYTFGQGTKLEIKRTVAAPSVFIFPPSDEQLKSGTASVVCLLNNFYPREAKVQWKVDNALQSGNSQESVTEQDSKDSTYSLSSTLTLSKADYEKHKVYACEVTHQGLSSPVTKSFNRGEC
6.8 nM | BC3B106 (bispecific antibody, human IgG1, kappa, L234A L235A, IgG1 BCMAxCD3; HC1: CD3B2051 HL scFv-Fc; also called BC3B106.001; B2051 HL) QVQLVQSGAEVKKPGSSVKVSCKASGYTFTRSTMHWVKQAPGQGLEWMGYINPSSAYTNYNQKFQGRVTLTADKSTSTAYMELSSLRSEDTAVYYCASPQVHYDYNGFPYWGQGTLVTVSSGGSEGKSSGSGSESKSTGGSEIVLTQSPATLSASPGERVTLSCSASSSVSYMNWYQQKPGQAPRRLIYDSSKLASGVPARFSGSGSGRDYTLTISSLEPEDFAVYYCQQWSRNPPTFGGGTKVEIKEPKSSDKTHTCPPCPAPEAAGGPSVFLFPPKPKDTLMISRTPEVTCVVVSVSHEDPEVKFNWYVDGVEVHNAKTKPREEQYNSTYRVVSVLTVLHQDWLNGKEYKCKVSNKALPAPIEKTISKAKGQPREPQVYVYPPSREEMTKNQVSLTCLVKGFYPSDIAVEWESNGQPENNYKTTPPVLDSDGSFALVSKLTVDKSRWQQGNVFSCSVMHEALHNHYTQKSLSLSPG heavy: not shown light: EIVLTQSPGTLSLSPGERATLSCRASQSISSSFLTWYQQKPGQAPRLLIYGASSRATGIPDRFSGGGSGTDFTLTISRLEPEDFAVYYCQHYGSSPMYTFGQGTKLEIKRTVAAPSVFIFPPSDEQLKSGTASVVCLLNNFYPREAKVQWKVDNALQSGNSQESVTEQDSKDSTYSLSSTLTLSKADYEKHKVYACEVTHQGLSSPVTKSFNRGEC

Source: patent US20250145711A1 (Janssen / Centocor, published 2025)
